Reference: publication PMC5114850

Molecular target: recombinant human calmodulin (human), P0DP23
Experiment: ITC
Conditions: remark: other sources report otherwise

A Kd of 1680 nM, a dH of -7.3 kcal/mol and a stoichiometry N of 0.99 sites were found for Ac-SQSHPVMKAFCGLLLQSS-NH2 [CaMBP1 peptide of zebrafish STRA6] in this work.
